Measurements: paper PMC4411306, “Osmosensing and scaffolding functions of the oligomeric four-transmembrane domain osmosensor Sho1” (Nature Communications, 2015)

B1: HA-Sho1* T66C (natural protein, Saccharomyces cerevisiae, UniProt P40073 1-367, looked up)
chain: MSISSKIRPTPRKPSRMATDHSFKMKKFYADPFAISSISLAIVSWVIAIGGSISSASTNESFPRFCWWGIVYQFLIISSLMLFYSFDLVDHYRIFITTSIAVAFVYNTNSATNLVYADGPKKAAASAGVILLSIINLIWILYYGGDNASPTNRWIDSFSIKGIRPSPLENSLHRARRRGNRNTTPYQNNVYNDAIRDSGYATQFDGYPQQQPSHTNYVSSTALAGFENTQPNTSEAVNLHLNTLQQRINSASNAKETNDNSNNQTNTNIGNTFDTDFSNGNTETTMGDTLGLYSDIGDDNFIYKAKALYPYDADDDDAYEISFEQNEILQVSDIEGRWWKARRANGETGIIPSNYVQLIDGPEEMHR
notes: Sho1, S. cerevisiae, Cys-less (C78S C85S) with a single Cys in TM2; also called Sho1-FL-T66C; source: S. cerevisiae KT079 (sho1Δ), GAL1 promoter, in membrane fraction; not shown: HA, N-terminal, kept
B2: HA-Sho1* T112C (natural protein, Saccharomyces cerevisiae, UniProt P40073 1-367, looked up)
chain: MSISSKIRPTPRKPSRMATDHSFKMKKFYADPFAISSISLAIVSWVIAIGGSISSASTNESFPRFTWWGIVYQFLIISSLMLFYSFDLVDHYRIFITTSIAVAFVYNTNSACNLVYADGPKKAAASAGVILLSIINLIWILYYGGDNASPTNRWIDSFSIKGIRPSPLENSLHRARRRGNRNTTPYQNNVYNDAIRDSGYATQFDGYPQQQPSHTNYVSSTALAGFENTQPNTSEAVNLHLNTLQQRINSASNAKETNDNSNNQTNTNIGNTFDTDFSNGNTETTMGDTLGLYSDIGDDNFIYKAKALYPYDADDDDAYEISFEQNEILQVSDIEGRWWKARRANGETGIIPSNYVQLIDGPEEMHR
notes: Sho1, S. cerevisiae, Cys-less (C78S C85S) with a single Cys in TM3; source: S. cerevisiae KT079 (sho1Δ), GAL1 promoter, in membrane fraction; not shown: HA, N-terminal, kept
B3: HA-Sho1*-A124C (natural protein, Saccharomyces cerevisiae, UniProt P40073 1-367, looked up)
chain: MSISSKIRPTPRKPSRMATDHSFKMKKFYADPFAISSISLAIVSWVIAIGGSISSASTNESFPRFTWWGIVYQFLIISSLMLFYSFDLVDHYRIFITTSIAVAFVYNTNSATNLVYADGPKKACASAGVILLSIINLIWILYYGGDNASPTNRWIDSFSIKGIRPSPLENSLHRARRRGNRNTTPYQNNVYNDAIRDSGYATQFDGYPQQQPSHTNYVSSTALAGFENTQPNTSEAVNLHLNTLQQRINSASNAKETNDNSNNQTNTNIGNTFDTDFSNGNTETTMGDTLGLYSDIGDDNFIYKAKALYPYDADDDDAYEISFEQNEILQVSDIEGRWWKARRANGETGIIPSNYVQLIDGPEEMHR
notes: Sho1, S. cerevisiae, Cys-less (C78S C85S) with a single Cys in TM4; source: S. cerevisiae KT079 (sho1Δ), GAL1 promoter, in membrane fraction; S. cerevisiae KY590-1, GAL1 promoter, in intact cells, then lysate; not shown: HA, N-terminal, kept
B4: HA-Sho1* G50C (natural protein, Saccharomyces cerevisiae, UniProt P40073 1-367, looked up)
chain: MSISSKIRPTPRKPSRMATDHSFKMKKFYADPFAISSISLAIVSWVIAICGSISSASTNESFPRFTWWGIVYQFLIISSLMLFYSFDLVDHYRIFITTSIAVAFVYNTNSATNLVYADGPKKAAASAGVILLSIINLIWILYYGGDNASPTNRWIDSFSIKGIRPSPLENSLHRARRRGNRNTTPYQNNVYNDAIRDSGYATQFDGYPQQQPSHTNYVSSTALAGFENTQPNTSEAVNLHLNTLQQRINSASNAKETNDNSNNQTNTNIGNTFDTDFSNGNTETTMGDTLGLYSDIGDDNFIYKAKALYPYDADDDDAYEISFEQNEILQVSDIEGRWWKARRANGETGIIPSNYVQLIDGPEEMHR
notes: Sho1, S. cerevisiae, Cys-less (C78S C85S) with a single Cys in TM1; source: S. cerevisiae KT079 (sho1Δ), GAL1 promoter, in membrane fraction; in intact cells; not shown: HA, N-terminal, kept
B5: HA-Sho1* V105C (natural protein, Saccharomyces cerevisiae, UniProt P40073 1-367, looked up)
chain: MSISSKIRPTPRKPSRMATDHSFKMKKFYADPFAISSISLAIVSWVIAIGGSISSASTNESFPRFTWWGIVYQFLIISSLMLFYSFDLVDHYRIFITTSIAVAFCYNTNSATNLVYADGPKKAAASAGVILLSIINLIWILYYGGDNASPTNRWIDSFSIKGIRPSPLENSLHRARRRGNRNTTPYQNNVYNDAIRDSGYATQFDGYPQQQPSHTNYVSSTALAGFENTQPNTSEAVNLHLNTLQQRINSASNAKETNDNSNNQTNTNIGNTFDTDFSNGNTETTMGDTLGLYSDIGDDNFIYKAKALYPYDADDDDAYEISFEQNEILQVSDIEGRWWKARRANGETGIIPSNYVQLIDGPEEMHR
notes: Sho1, S. cerevisiae, Cys-less (C78S C85S) with a single Cys; source: S. cerevisiae KT079 (sho1Δ), GAL1 promoter, in membrane fraction; not shown: HA, N-terminal, kept
B6: HA-Sho1* S54C (natural protein, Saccharomyces cerevisiae, UniProt P40073 1-367, looked up)
chain: MSISSKIRPTPRKPSRMATDHSFKMKKFYADPFAISSISLAIVSWVIAIGGSICSASTNESFPRFTWWGIVYQFLIISSLMLFYSFDLVDHYRIFITTSIAVAFVYNTNSATNLVYADGPKKAAASAGVILLSIINLIWILYYGGDNASPTNRWIDSFSIKGIRPSPLENSLHRARRRGNRNTTPYQNNVYNDAIRDSGYATQFDGYPQQQPSHTNYVSSTALAGFENTQPNTSEAVNLHLNTLQQRINSASNAKETNDNSNNQTNTNIGNTFDTDFSNGNTETTMGDTLGLYSDIGDDNFIYKAKALYPYDADDDDAYEISFEQNEILQVSDIEGRWWKARRANGETGIIPSNYVQLIDGPEEMHR
notes: as for B5
B7: HA-Sho1* I53C (natural protein, Saccharomyces cerevisiae, UniProt P40073 1-367, looked up)
chain: MSISSKIRPTPRKPSRMATDHSFKMKKFYADPFAISSISLAIVSWVIAIGGSCSSASTNESFPRFTWWGIVYQFLIISSLMLFYSFDLVDHYRIFITTSIAVAFVYNTNSATNLVYADGPKKAAASAGVILLSIINLIWILYYGGDNASPTNRWIDSFSIKGIRPSPLENSLHRARRRGNRNTTPYQNNVYNDAIRDSGYATQFDGYPQQQPSHTNYVSSTALAGFENTQPNTSEAVNLHLNTLQQRINSASNAKETNDNSNNQTNTNIGNTFDTDFSNGNTETTMGDTLGLYSDIGDDNFIYKAKALYPYDADDDDAYEISFEQNEILQVSDIEGRWWKARRANGETGIIPSNYVQLIDGPEEMHR
notes: as for B5
B8: HA-Sho1* A123C (natural protein, Saccharomyces cerevisiae, UniProt P40073 1-367, looked up)
chain: MSISSKIRPTPRKPSRMATDHSFKMKKFYADPFAISSISLAIVSWVIAIGGSISSASTNESFPRFTWWGIVYQFLIISSLMLFYSFDLVDHYRIFITTSIAVAFVYNTNSATNLVYADGPKKCAASAGVILLSIINLIWILYYGGDNASPTNRWIDSFSIKGIRPSPLENSLHRARRRGNRNTTPYQNNVYNDAIRDSGYATQFDGYPQQQPSHTNYVSSTALAGFENTQPNTSEAVNLHLNTLQQRINSASNAKETNDNSNNQTNTNIGNTFDTDFSNGNTETTMGDTLGLYSDIGDDNFIYKAKALYPYDADDDDAYEISFEQNEILQVSDIEGRWWKARRANGETGIIPSNYVQLIDGPEEMHR
notes: as for B5
B9: HA-Sho1* N109C (natural protein, Saccharomyces cerevisiae, UniProt P40073 1-367, looked up)
chain: MSISSKIRPTPRKPSRMATDHSFKMKKFYADPFAISSISLAIVSWVIAIGGSISSASTNESFPRFTWWGIVYQFLIISSLMLFYSFDLVDHYRIFITTSIAVAFVYNTCSATNLVYADGPKKAAASAGVILLSIINLIWILYYGGDNASPTNRWIDSFSIKGIRPSPLENSLHRARRRGNRNTTPYQNNVYNDAIRDSGYATQFDGYPQQQPSHTNYVSSTALAGFENTQPNTSEAVNLHLNTLQQRINSASNAKETNDNSNNQTNTNIGNTFDTDFSNGNTETTMGDTLGLYSDIGDDNFIYKAKALYPYDADDDDAYEISFEQNEILQVSDIEGRWWKARRANGETGIIPSNYVQLIDGPEEMHR
notes: as for B5
B10: HA-Sho1* T66C I94C (natural protein, Saccharomyces cerevisiae, UniProt P40073 1-367, looked up)
chain: MSISSKIRPTPRKPSRMATDHSFKMKKFYADPFAISSISLAIVSWVIAIGGSISSASTNESFPRFCWWGIVYQFLIISSLMLFYSFDLVDHYRCFITTSIAVAFVYNTNSATNLVYADGPKKAAASAGVILLSIINLIWILYYGGDNASPTNRWIDSFSIKGIRPSPLENSLHRARRRGNRNTTPYQNNVYNDAIRDSGYATQFDGYPQQQPSHTNYVSSTALAGFENTQPNTSEAVNLHLNTLQQRINSASNAKETNDNSNNQTNTNIGNTFDTDFSNGNTETTMGDTLGLYSDIGDDNFIYKAKALYPYDADDDDAYEISFEQNEILQVSDIEGRWWKARRANGETGIIPSNYVQLIDGPEEMHR
notes: Sho1, S. cerevisiae, Cys-less (C78S C85S) with Cys in TM2 and TM3; source: S. cerevisiae KT079 (sho1Δ), GAL1 promoter, in membrane fraction; not shown: HA, N-terminal, kept
B11: HA-Sho1* I94C T112C (natural protein, Saccharomyces cerevisiae, UniProt P40073 1-367, looked up)
chain: MSISSKIRPTPRKPSRMATDHSFKMKKFYADPFAISSISLAIVSWVIAIGGSISSASTNESFPRFTWWGIVYQFLIISSLMLFYSFDLVDHYRCFITTSIAVAFVYNTNSACNLVYADGPKKAAASAGVILLSIINLIWILYYGGDNASPTNRWIDSFSIKGIRPSPLENSLHRARRRGNRNTTPYQNNVYNDAIRDSGYATQFDGYPQQQPSHTNYVSSTALAGFENTQPNTSEAVNLHLNTLQQRINSASNAKETNDNSNNQTNTNIGNTFDTDFSNGNTETTMGDTLGLYSDIGDDNFIYKAKALYPYDADDDDAYEISFEQNEILQVSDIEGRWWKARRANGETGIIPSNYVQLIDGPEEMHR
notes: Sho1, S. cerevisiae, Cys-less (C78S C85S) with two Cys in TM3; source: S. cerevisiae KT079 (sho1Δ), GAL1 promoter, in membrane fraction; not shown: HA, N-terminal, kept
B12: HA-Sho1* G50C A124C (natural protein, Saccharomyces cerevisiae, UniProt P40073 1-367, looked up)
chain: MSISSKIRPTPRKPSRMATDHSFKMKKFYADPFAISSISLAIVSWVIAICGSISSASTNESFPRFTWWGIVYQFLIISSLMLFYSFDLVDHYRIFITTSIAVAFVYNTNSATNLVYADGPKKACASAGVILLSIINLIWILYYGGDNASPTNRWIDSFSIKGIRPSPLENSLHRARRRGNRNTTPYQNNVYNDAIRDSGYATQFDGYPQQQPSHTNYVSSTALAGFENTQPNTSEAVNLHLNTLQQRINSASNAKETNDNSNNQTNTNIGNTFDTDFSNGNTETTMGDTLGLYSDIGDDNFIYKAKALYPYDADDDDAYEISFEQNEILQVSDIEGRWWKARRANGETGIIPSNYVQLIDGPEEMHR
notes: Sho1, S. cerevisiae, Cys-less (C78S C85S) with Cys in TM1 and TM4; also called G/C A/C; source: S. cerevisiae KT079 (sho1Δ), GAL1 promoter, in membrane fraction; not shown: HA, N-terminal, kept
B13: HA-Sho1* T66C T112C (natural protein, Saccharomyces cerevisiae, UniProt P40073 1-367, looked up)
chain: MSISSKIRPTPRKPSRMATDHSFKMKKFYADPFAISSISLAIVSWVIAIGGSISSASTNESFPRFCWWGIVYQFLIISSLMLFYSFDLVDHYRIFITTSIAVAFVYNTNSACNLVYADGPKKAAASAGVILLSIINLIWILYYGGDNASPTNRWIDSFSIKGIRPSPLENSLHRARRRGNRNTTPYQNNVYNDAIRDSGYATQFDGYPQQQPSHTNYVSSTALAGFENTQPNTSEAVNLHLNTLQQRINSASNAKETNDNSNNQTNTNIGNTFDTDFSNGNTETTMGDTLGLYSDIGDDNFIYKAKALYPYDADDDDAYEISFEQNEILQVSDIEGRWWKARRANGETGIIPSNYVQLIDGPEEMHR
notes: Sho1, S. cerevisiae, Cys-less (C78S C85S) with Cys in TM2 and TM3; also called T/C T/C; source: S. cerevisiae KT079 (sho1Δ), GAL1 promoter, in membrane fraction; not shown: HA, N-terminal, kept

Molecular target: the molecule itself
Test: cross-linking; membrane fraction of cells expressing a single-Cys mutant of HA-Sho1*; homo-trifunctional crosslinker TMEA; SDS–PAGE, anti-HA blot

Row | Protein | stoichiometry N
1 | B1 | 3
2 | B2 | 3
3 | B3 | 2
4 | B4 | 2

Molecular target: the molecule itself
Test: cross-linking; spontaneous disulfide bond formation: membrane fractions without chemical crosslinker, SDS–PAGE without 2-ME, anti-HA blot

Row | Protein | stoichiometry N
5 | B5 | 2
6 | B6 | 2
7 | B7 | 2
8 | B8 | 2
9 | B9 | 2

Molecular target: the molecule itself
Test: cross-linking; detergent-free membrane fraction of sho1Δ cells expressing a Cys mutant of HA-Sho1*; 0.2 mM bifunctional thiol crosslinker (o-PDM, p-PDM or BMH), 20 min, 25 °C; SDS–PAGE, anti-HA blot

Row | Protein | stoichiometry N
10 | B10 | 3
11 | B11 | 3
12 | B12 | 2
13 | B13 | 3
